Test results reported in US20030216321A1 (REGENTS OF THE UNIVERSITY OF MICHIGAN, published 2003).
One block for each binder: values may come before it. Ends that are not written are not given here.

Key:
PAI-1:uPA complex = biological target: T1, PAI-1:uPA complex (human, UniProt P00749 21-431); test: solid phase assay on nVn-coated plates, anti-PAI-1 detection (FIG. 27)
T1 construct: also called uPA-PAI-1 complex; UPA-PAI-1

PAI-1:tPA complex = biological target: T2, PAI-1:tPA complex (human, UniProt P00750 36-562); test: as above
T2 construct: also called tPA-PAI-1 complex

[1] = biological target: T3, non-covalent PAI-1-anhydrotrypsin complex (human; bovine, UniProt P00760 24-246, anhydrotrypsin (chemically modified active site; the residue is not given)); test: solid phase assay on nVn-coated plates with 1 µM anhydrotrypsin in all wells (FIG. 28)
T3 construct: Formed in the well: 1 µM anhydrotrypsin present during the PAI-1 incubation step; also called PAI-1 in association with anhydrotrypsin
Experimental: Briefly, Vn at 1 µg/ml in phosphate buffered saline (PBS), was coated overnight onto Immulon 2 (Dynatech) rmicrotiter plates in a volume of 100 μl at 4° C., and all subsequent steps were performed at room temperature. The plates were washed with PBS followed by dH₂O, allowed to air dry for 15 min., and then blocked with 200 μl of 3% bovine serum albumin in PBS for 30 minutes.

[2] = biological target: T4, recombinant active wild-type PAI-1 (plasminogen activator inhibitor type 1) (human, UniProt P05121 24-402); test: competitive inhibition of active PAI-1 binding to immobilized nVn by solution-phase Vn, ELISA
T4 construct: Serpin; Bacterially expressed human PAI-1 (Molecular Innovations), active conformation (>95%); also called wtPAI-1; active PAI-1
Experimental: IC₅₀ values for the inhibition by solution-phase Vn were calculated using a four parameter logistic fit from the GraFit program (Erithacus Software). […] The latter was calculated based on the fit of binding data in the absence of competitor Vn (FIG. 37) by equation 1.

[3] = biological target: T4, recombinant active wild-type PAI-1 …; test: 6.4 µM active PAI-1 with 200 µM peptide; thermodenaturation, mass spectra, SDS-PAGE
From the text: The free peptide was then removed by chromatography on Heparin Sepharose.

Kd (PAI-1:uPA complex): > 100 nM
Kd (PAI-1:tPA complex): > 100 nM
binding result [1]: binds
B1: native human vitronectin (ligand, UniProt P04004 20-478, looked up)
chain: DQESCKGRCTEGFNVDKKCQCDELCSYYQSCCTDYTAECKPQVTRGDVFTMPEDEYTVYDDGEEKNNATVHEQVGGPSLTSDLQAQSKGNPEQTPVLKPEEEAPAPEVGASKPEGIDSRPETLHPGRPQPPAEEELCSGKPFDAFTDLKNGSLFAFRGQYCYELDEKAVRPGYPKLIRDVWGIEGPIDAAFTRINCQGKTYLFKGSQYWRFEDGVLDPDYPRNISDGFDGIPDNVDAALALPAHSYSGRERVYFFKGKQYWEYQFQHQPSQEECEGSSLSAVFEHFAMMQRDSWEDIFELLFWGRTSAGTRQPQFISRDWHGVPGQVDAAMAGRIYISGMAPRPSLAKKQRFRHRNRKGYRSQRGHSRGRNQNSRRPSRATWLSLFSSEESNLGANNYDDYRMDWLVPATCEPIQSVFFFSGDKYYRVNLRTRRVDTVDPPYPRSIAQYWLGCPAPGHL
notes: Predominantly monomeric; also called nVn; native Vn

fold difference of IC50 against solution-phase nVn [2]: ~6 fold
B2: urea denatured human vitronectin (conformationally altered) (ligand, UniProt P04004 20-478, looked up)
chain: DQESCKGRCTEGFNVDKKCQCDELCSYYQSCCTDYTAECKPQVTRGDVFTMPEDEYTVYDDGEEKNNATVHEQVGGPSLTSDLQAQSKGNPEQTPVLKPEEEAPAPEVGASKPEGIDSRPETLHPGRPQPPAEEELCSGKPFDAFTDLKNGSLFAFRGQYCYELDEKAVRPGYPKLIRDVWGIEGPIDAAFTRINCQGKTYLFKGSQYWRFEDGVLDPDYPRNISDGFDGIPDNVDAALALPAHSYSGRERVYFFKGKQYWEYQFQHQPSQEECEGSSLSAVFEHFAMMQRDSWEDIFELLFWGRTSAGTRQPQFISRDWHGVPGQVDAAMAGRIYISGMAPRPSLAKKQRFRHRNRKGYRSQRGHSRGRNQNSRRPSRATWLSLFSSEESNLGANNYDDYRMDWLVPATCEPIQSVFFFSGDKYYRVNLRTRRVDTVDPPYPRSIAQYWLGCPAPGHL
notes: also called dVn; uVn

binding result [3]: binds
B3: synthetic RCL peptide Ac-Thr-Val-Ala-Ser-Ser-Ser-Thr-Ala (PAI-1 P14 to P7) (peptide)
peptide: Ac-TVASSSTA
notes: also called eight residue synthetic peptide
